# Tested on: Escherichia coli TOP10
# Test: shrunken log2 fold change of peptide-encoding DNA abundance (4.5 h post-induction vs induction); higher = less antimicrobial activity (less host growth inhibition)
# Settings: time post-induction: 4.5 h; library: site-saturation at positions 5, 18, 19, 20
# 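Note: peptides expressed intracellularly from a pBAD plasmid library in pooled LB shake-flask culture, induced with 0.3% L-arabinose, DNA abundance read by NGS, three biological replicates, DESeq2 with apeglm shrinkage.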
row,Sequence,shrunken log2 fold change
1,RRIRFRPPRLPRPRPRPWKMPRP,-0.211
2,RRIRMRPPRLPRPRPRPQWCPRP,-0.0474
3,RRIRWRPPRLPRPRPRPVTVPRP,-0.194
4,RRIRFRPPRLPRPRPRPPHYPRP,-0.124
5,RRIRRRPPRLPRPRPRPHFNPRP,-0.11
6,RRIRCRPPRLPRPRPRPDEQPRP,-0.00573
7,RRIRDRPPRLPRPRPRPTLAPRP,0.933
8,RRIRYRPPRLPRPRPRPTDEPRP,-0.00133
9,RRIRQRPPRLPRPRPRPPEVPRP,0.0121
10,RRIRNRPPRLPRPRPRPKPQPRP,0.41
11,RRIRIRPPRLPRPRPRPPELPRP,-0.123
12,RRIRPRPPRLPRPRPRPISNPRP,-0.408
13,RRIRYRPPRLPRPRPRPTDGPRP,-0.0848
14,RRIRFRPPRLPRPRPRPNWCPRP,-0.107
15,RRIRSRPPRLPRPRPRPSSCPRP,-0.271
16,RRIRKRPPRLPRPRPRPLLFPRP,0.176
17,RRIRWRPPRLPRPRPRPSMTPRP,0.178
18,RRIRSRPPRLPRPRPRPYAKPRP,-0.123
19,RRIRGRPPRLPRPRPRPLYDPRP,0.135
20,RRIRFRPPRLPRPRPRPHPYPRP,0.0415
21,RRIRCRPPRLPRPRPRPTCQPRP,0.00203
22,RRIRCRPPRLPRPRPRPPGPPRP,0.337

row,Sequence,shrunken log2 fold change
1,RRIRARPPRLPRPRPRPDPWPRP,0.308
2,RRIRWRPPRLPRPRPRPGHTPRP,0.0581
3,RRIRARPPRLPRPRPRPWMYPRP,-0.794
4,RRIRLRPPRLPRPRPRPDVEPRP,-0.0825
5,RRIRVRPPRLPRPRPRPIYKPRP,-0.535
6,RRIRWRPPRLPRPRPRPHCIPRP,-0.207
7,RRIRCRPPRLPRPRPRPYTGPRP,-0.554
8,RRIRQRPPRLPRPRPRPAIPPRP,0.0602
9,RRIRRRPPRLPRPRPRPRWVPRP,0.407
10,RRIRFRPPRLPRPRPRPIPPPRP,1.09
11,RRIRQRPPRLPRPRPRPDQPPRP,-0.0438
12,RRIRERPPRLPRPRPRPDNMPRP,-0.2
13,RRIRARPPRLPRPRPRPMHDPRP,0.341
14,RRIRNRPPRLPRPRPRPRCTPRP,-0.263
15,RRIRTRPPRLPRPRPRPHTAPRP,-0.0446
16,RRIRCRPPRLPRPRPRPISTPRP,-0.245
17,RRIRMRPPRLPRPRPRPHMIPRP,-0.159
18,RRIRWRPPRLPRPRPRPVSAPRP,0.316
19,RRIRLRPPRLPRPRPRPQLCPRP,0.118
20,RRIRERPPRLPRPRPRPDNEPRP,-0.0338
21,RRIRRRPPRLPRPRPRPAIQPRP,0.561
22,RRIRARPPRLPRPRPRPSVDPRP,0.125

row,Sequence,shrunken log2 fold change
1,RRIRVRPPRLPRPRPRPQINPRP,-0.0064
2,RRIRTRPPRLPRPRPRPNFLPRP,0.998
3,RRIRVRPPRLPRPRPRPGGAPRP,0.603
4,RRIRMRPPRLPRPRPRPPKRPRP,1.05
5,RRIRSRPPRLPRPRPRPGYGPRP,-0.0163
6,RRIRMRPPRLPRPRPRPNENPRP,0.314
7,RRIRRRPPRLPRPRPRPRPEPRP,0.343
8,RRIRLRPPRLPRPRPRPCCMPRP,-0.408
9,RRIRARPPRLPRPRPRPTPMPRP,0.528
10,RRIRFRPPRLPRPRPRPANQPRP,-0.165
11,RRIRSRPPRLPRPRPRPCAKPRP,0.0351
12,RRIRYRPPRLPRPRPRPQVGPRP,-0.0385
13,RRIRKRPPRLPRPRPRPFAVPRP,-0.14
14,RRIRHRPPRLPRPRPRPWPGPRP,-0.327
15,RRIRSRPPRLPRPRPRPTQHPRP,0.376
16,RRIRSRPPRLPRPRPRPMDCPRP,0.00208
17,RRIRERPPRLPRPRPRPTIIPRP,-0.664
18,RRIRGRPPRLPRPRPRPYLDPRP,0.0767
19,RRIRVRPPRLPRPRPRPTKHPRP,-0.135
20,RRIRHRPPRLPRPRPRPRGGPRP,0.504
21,RRIRARPPRLPRPRPRPCLCPRP,-0.495
22,RRIRVRPPRLPRPRPRPSYFPRP,-0.131

row,Sequence,shrunken log2 fold change
1,RRIRFRPPRLPRPRPRPSYFPRP,-0.479
2,RRIRSRPPRLPRPRPRPSYRPRP,-0.131
3,RRIRSRPPRLPRPRPRPQEYPRP,-0.257
4,RRIRSRPPRLPRPRPRPEECPRP,0.251
5,RRIRTRPPRLPRPRPRPLPTPRP,0.368
6,RRIRGRPPRLPRPRPRPETHPRP,2.22
7,RRIRQRPPRLPRPRPRPVECPRP,0.0104
8,RRIRPRPPRLPRPRPRPENYPRP,-0.283
9,RRIRRRPPRLPRPRPRPEGRPRP,0.89
10,RRIRLRPPRLPRPRPRPSGVPRP,-0.0863
11,RRIRERPPRLPRPRPRPITGPRP,-0.0908
12,RRIRRRPPRLPRPRPRPGYAPRP,0.259
13,RRIRDRPPRLPRPRPRPDCCPRP,-0.0205
14,RRIRNRPPRLPRPRPRPAHMPRP,-0.167
15,RRIRIRPPRLPRPRPRPWKNPRP,-0.235
16,RRIRHRPPRLPRPRPRPRVMPRP,0.0966
17,RRIRQRPPRLPRPRPRPGHDPRP,-0.112
18,RRIRHRPPRLPRPRPRPAWCPRP,0.081
19,RRIRCRPPRLPRPRPRPERWPRP,0.877
20,RRIRFRPPRLPRPRPRPDWKPRP,0.0379
21,RRIRLRPPRLPRPRPRPFHNPRP,-0.336
22,RRIRCRPPRLPRPRPRPSESPRP,0.258

row,Sequence,shrunken log2 fold change
1,RRIRYRPPRLPRPRPRPESWPRP,-0.0403
2,RRIRGRPPRLPRPRPRPPCNPRP,0.489
3,RRIRWRPPRLPRPRPRPNKDPRP,-0.393
4,RRIRDRPPRLPRPRPRPCHLPRP,-0.00196
5,RRIRLRPPRLPRPRPRPIAWPRP,0.0351
6,RRIRPRPPRLPRPRPRPSNRPRP,-0.783
7,RRIRPRPPRLPRPRPRPWIAPRP,0.0544
8,RRIRDRPPRLPRPRPRPADFPRP,-0.0606
9,RRIRVRPPRLPRPRPRPCLKPRP,-0.469
10,RRIRNRPPRLPRPRPRPNCHPRP,0.0111
11,RRIRQRPPRLPRPRPRPSLWPRP,0.337
12,RRIRYRPPRLPRPRPRPQFRPRP,-0.18
13,RRIRGRPPRLPRPRPRPHRAPRP,0.108
14,RRIRVRPPRLPRPRPRPGEWPRP,-0.00804
15,RRIRSRPPRLPRPRPRPTGQPRP,0.31
16,RRIRDRPPRLPRPRPRPPIKPRP,-0.204
17,RRIRRRPPRLPRPRPRPILMPRP,-0.00531
18,RRIRFRPPRLPRPRPRPNDFPRP,-0.228
19,RRIRDRPPRLPRPRPRPWYSPRP,-0.0808
20,RRIRGRPPRLPRPRPRPMTIPRP,0.0989
21,RRIRDRPPRLPRPRPRPDKAPRP,-0.00804

# From the supplement of paper PMC9112550, “Optimization of the antimicrobial peptide Bac7 by deep mutational scanning” (BMC Biology, 2022)
